Measured values: US20040234530

Molecular target: C1-esterase inhibitor (human plasma protease C1 inhibitor), purified or in human serum (UniProt P05155)
Sequence (P05155 23-500): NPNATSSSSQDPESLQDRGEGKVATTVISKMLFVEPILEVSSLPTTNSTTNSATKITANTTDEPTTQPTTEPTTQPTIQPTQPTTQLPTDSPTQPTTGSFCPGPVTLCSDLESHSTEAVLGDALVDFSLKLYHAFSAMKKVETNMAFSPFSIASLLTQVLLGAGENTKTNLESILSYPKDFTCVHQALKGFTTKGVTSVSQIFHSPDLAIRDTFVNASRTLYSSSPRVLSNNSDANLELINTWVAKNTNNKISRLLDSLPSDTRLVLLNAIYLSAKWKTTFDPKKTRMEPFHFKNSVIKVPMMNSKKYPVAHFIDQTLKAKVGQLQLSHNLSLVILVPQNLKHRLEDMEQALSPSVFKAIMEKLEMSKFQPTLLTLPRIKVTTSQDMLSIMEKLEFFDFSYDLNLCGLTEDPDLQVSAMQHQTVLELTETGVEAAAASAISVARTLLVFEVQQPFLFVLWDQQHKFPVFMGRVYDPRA

Substance	cleavage of C1-INH (immunoblot)	kallikrein activity (cleavage of chromogenic substrate S-2302)
StcE E435D-His (from pTEG1 in BL21(DE3), strain WAM2726)	While StcE-His is able to degrade C1-INH, we observed no such cleavage with the mutant protein	–
purified kallikrein (Calbiochem)	–	ranging from 88.8% (±2.6% SEM) to 10.3% (±1.3% SEM) activity
